{"source": "paper PMC10140023", "about": "(2023)", "key": {"GFP-POLD1": {"target": "T1, GFP-POLD1 (human, UniProt P28340 1-1107)", "T1 chain": "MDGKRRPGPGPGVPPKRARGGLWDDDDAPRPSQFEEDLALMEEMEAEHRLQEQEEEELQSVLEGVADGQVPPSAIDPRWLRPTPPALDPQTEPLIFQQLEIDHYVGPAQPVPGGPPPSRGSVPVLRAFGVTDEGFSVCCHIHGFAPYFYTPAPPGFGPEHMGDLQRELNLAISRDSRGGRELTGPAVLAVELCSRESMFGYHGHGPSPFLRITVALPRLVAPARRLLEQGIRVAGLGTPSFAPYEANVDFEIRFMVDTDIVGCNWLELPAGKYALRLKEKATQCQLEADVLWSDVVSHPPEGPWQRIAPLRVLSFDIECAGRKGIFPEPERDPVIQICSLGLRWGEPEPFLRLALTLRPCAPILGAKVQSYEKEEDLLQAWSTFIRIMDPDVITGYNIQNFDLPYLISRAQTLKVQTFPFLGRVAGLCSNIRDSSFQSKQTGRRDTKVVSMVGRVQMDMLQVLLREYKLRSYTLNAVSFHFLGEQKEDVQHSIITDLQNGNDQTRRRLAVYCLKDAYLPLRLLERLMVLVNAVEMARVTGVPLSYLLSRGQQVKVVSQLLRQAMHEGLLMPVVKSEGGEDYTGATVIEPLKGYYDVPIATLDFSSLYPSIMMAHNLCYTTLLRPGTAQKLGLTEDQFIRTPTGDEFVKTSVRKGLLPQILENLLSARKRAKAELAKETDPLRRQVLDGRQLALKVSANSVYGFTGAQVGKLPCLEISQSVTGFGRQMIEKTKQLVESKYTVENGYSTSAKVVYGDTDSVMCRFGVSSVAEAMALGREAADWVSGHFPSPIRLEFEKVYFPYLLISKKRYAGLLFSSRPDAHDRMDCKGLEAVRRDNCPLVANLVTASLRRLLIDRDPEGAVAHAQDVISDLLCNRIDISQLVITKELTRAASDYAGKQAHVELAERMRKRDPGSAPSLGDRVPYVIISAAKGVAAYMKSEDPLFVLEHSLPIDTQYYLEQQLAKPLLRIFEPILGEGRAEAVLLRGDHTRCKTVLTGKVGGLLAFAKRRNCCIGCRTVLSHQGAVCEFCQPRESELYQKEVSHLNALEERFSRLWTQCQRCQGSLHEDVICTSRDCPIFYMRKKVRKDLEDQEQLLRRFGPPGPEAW", "experiment": "MST"}, "GFP-FBXW7α": {"target": "GFP-FBXW7α (human, UniProt Q969H0 1-707)", "sequence (Q969H0 whole entry)": "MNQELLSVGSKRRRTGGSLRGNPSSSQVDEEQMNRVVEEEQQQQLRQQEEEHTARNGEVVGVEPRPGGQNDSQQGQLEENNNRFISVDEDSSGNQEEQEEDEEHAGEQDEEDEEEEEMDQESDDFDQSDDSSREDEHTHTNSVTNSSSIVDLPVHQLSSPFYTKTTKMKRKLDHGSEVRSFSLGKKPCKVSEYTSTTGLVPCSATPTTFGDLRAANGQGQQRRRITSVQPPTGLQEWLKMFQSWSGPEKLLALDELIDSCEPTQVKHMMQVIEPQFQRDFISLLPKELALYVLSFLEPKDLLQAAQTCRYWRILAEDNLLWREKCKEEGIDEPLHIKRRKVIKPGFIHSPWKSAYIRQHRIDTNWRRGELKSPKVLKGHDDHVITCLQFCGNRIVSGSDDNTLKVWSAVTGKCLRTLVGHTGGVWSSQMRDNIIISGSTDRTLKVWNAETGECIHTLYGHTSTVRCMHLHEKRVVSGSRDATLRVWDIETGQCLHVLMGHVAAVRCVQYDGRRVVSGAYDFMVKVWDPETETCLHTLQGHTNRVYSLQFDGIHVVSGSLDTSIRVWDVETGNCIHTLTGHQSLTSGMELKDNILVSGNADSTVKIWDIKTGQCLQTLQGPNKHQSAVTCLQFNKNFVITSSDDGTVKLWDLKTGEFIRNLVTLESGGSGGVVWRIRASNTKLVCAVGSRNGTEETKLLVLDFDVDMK", "experiment": "MST"}}}
{"binder": "APSEDIWKKFELLPDPPLSP", "note": "[MB1-T58D peptide]", "values": [{"measurement": "Kd", "setting": "GFP-POLD1", "result": 30.8, "unit": "µM"}, {"measurement": "Kd", "setting": "GFP-FBXW7α", "result": 110, "unit": "µM"}]}
{"binder": "APSEDIWKKFELLPAPPLSP", "note": "[MB1-T58A peptide]", "values": [{"measurement": "Kd", "setting": "GFP-POLD1", "result": 49.9, "unit": "µM"}, {"measurement": "Kd", "setting": "GFP-FBXW7α", "result": 2160, "unit": "µM"}]}
{"binder": "APSEDIWKKFELLPTPPLSP", "note": "[MYC-MB1 (WT) peptide]", "values": [{"measurement": "Kd", "setting": "GFP-POLD1", "result": 34.5, "unit": "µM"}, {"measurement": "Kd", "setting": "GFP-FBXW7α", "result": 700, "unit": "µM"}]}
